# Test results reported in PMC11481384.
# Target: Keap1 Kelch domain (amino acid residues 309 to 624) (human) (UniProt Q14145)
# Experiment: ITC; MicroCal ITC200, 25 °C, 20 mM Tris‐HCl and 150 mM NaCl; Kelch and synthetic PGAM5 peptides; 19 injections at 2‐min intervals
# Chain of Keap1 Kelch domain (amino acid residues 309 to 624) (human) (Q14145 309-624): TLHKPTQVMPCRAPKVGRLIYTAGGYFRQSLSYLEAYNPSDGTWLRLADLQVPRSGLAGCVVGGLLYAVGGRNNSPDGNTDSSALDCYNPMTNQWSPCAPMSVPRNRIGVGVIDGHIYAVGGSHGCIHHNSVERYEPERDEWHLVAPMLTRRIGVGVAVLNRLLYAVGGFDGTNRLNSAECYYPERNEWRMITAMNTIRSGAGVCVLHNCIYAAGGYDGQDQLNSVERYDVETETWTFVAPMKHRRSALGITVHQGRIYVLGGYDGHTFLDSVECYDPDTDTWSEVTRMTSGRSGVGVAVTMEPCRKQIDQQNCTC
row,Kd [µM],Substance
1,37.7,E79A mutant based on the PGAM5 20‐mer peptide
2,0.107,PGAM5 20‐mer peptide (based on the ESGE motif)
